The results in this text go back to paper PMC12657241.

In general, Kd refers to the equilibrium constant for the complex coming apart. Low values mean higher affinity, high ones lower affinity.

The target of assay [1] is OppA-iso, evolved OppA variant (E. coli) (UniProt P23843). In words: MST.
In assay [2] the target is wild-type OppA, periplasmic binding protein of the oligopeptide permease (Opp) ABC transporter (E. coli) (UniProt P23843). In words: MST.

Regarding G-SisoK, isopeptide-linked tripeptide, the Kd was found to be 37 µM in assay [1] and 50 µM in assay [2].
Regarding “SisoK, isopeptide-linked dipeptide (serine on the ε-amine of lysine)”, the dissociation constant (Kd) in assay [1] and in assay [2] was 300 µM in each case.
As for linear GSK tripeptide, the values for the Kd in assay [1] and in assay [2] were 275 µM and 71 µM, respectively.
